Test [1] addresses T1, human Nectin-4 extracellular antigen hNectin-4-His (human, UniProt Q96NY8 32-349).
T1 construct: C-terminal 8xHis tag included
T1 sequence: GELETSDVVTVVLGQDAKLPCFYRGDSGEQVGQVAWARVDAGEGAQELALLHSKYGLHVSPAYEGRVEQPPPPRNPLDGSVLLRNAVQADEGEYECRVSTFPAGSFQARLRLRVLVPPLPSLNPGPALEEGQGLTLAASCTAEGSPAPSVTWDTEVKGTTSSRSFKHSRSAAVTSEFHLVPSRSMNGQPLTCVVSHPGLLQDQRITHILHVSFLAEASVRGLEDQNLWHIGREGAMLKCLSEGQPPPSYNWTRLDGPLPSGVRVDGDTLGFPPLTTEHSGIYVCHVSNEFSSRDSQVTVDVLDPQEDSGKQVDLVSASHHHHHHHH
The experiment in a line: ELISA, coated hNectin-4-His. From the text:
(§1) The binding activity of the antibodies was detected by ELISA.
(In general: ELISA stands for enzyme-linked immunosorbent assay.)

For test [2], the target named is T1, human Nectin-4 extracellular antigen …. The experiment in a line: SPR, antibody on Protein A chip, hNectin-4-His analyte, 1:1 fit. The source says: (§2) In this study, the affinity of the antibodies for the human Nectin-4 extracellular antigen was detected by surface plasmon resonance (SPR) technique (BIAcore: GE Healthcare, T200).
A general note: SPR reads the build-up and loss of mass on a sensor chip optically.

Test [3] has as its target T2, human Nectin-4, full length on cells (human, UniProt Q96NY8 32-510).
T2 construct: whole, on cells; T-47D cells positive for Nectin-4 expression; also called Nectin-4 on T-47D cells; CHO-Nectin-4
T2 sequence (looked up): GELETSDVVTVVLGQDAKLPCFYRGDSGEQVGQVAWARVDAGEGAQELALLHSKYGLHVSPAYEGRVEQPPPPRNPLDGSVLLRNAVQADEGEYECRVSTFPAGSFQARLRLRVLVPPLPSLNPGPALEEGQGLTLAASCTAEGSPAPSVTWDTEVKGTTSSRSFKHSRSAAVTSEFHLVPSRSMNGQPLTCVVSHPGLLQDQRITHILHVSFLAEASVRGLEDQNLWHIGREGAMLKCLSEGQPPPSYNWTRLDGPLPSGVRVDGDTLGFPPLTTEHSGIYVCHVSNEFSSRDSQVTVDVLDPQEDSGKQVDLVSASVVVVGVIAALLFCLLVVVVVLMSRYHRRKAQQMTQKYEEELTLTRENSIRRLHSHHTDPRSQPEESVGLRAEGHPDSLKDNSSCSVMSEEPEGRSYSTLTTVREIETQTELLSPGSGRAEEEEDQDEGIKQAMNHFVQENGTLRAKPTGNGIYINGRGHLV
The experiment in a line: flow cytometry, T-47D cells, antibody bound on ice, 0 h at 37 C. As for the experimental part: (§3) In this assay, the relative amount of antibodies remaining on the cell surface after co-incubation at 37° C. for a certain period of time was detected by FACS to reflect the endocytosis efficiency. The procedures are briefly described as follows: T-47D cells (human ductal breast cancer cells, derived from the Cell Bank of Chinese Academy of Sciences, Cat.No. TCHu 87); the antibodies of interest were adjusted to 10 µg/mL and co-incubated with the cells on ice for 1 h; the cells were washed 3 times with pre-cooled PBS, and then placed at 37° C. and incubated for 0 h, 2 h and 4 h; 0.2% N₃Na was added to stop the endocytosis reaction; the cells were washed with PBS thrice, followed by the addition of the PE-labeled anti-human Fc secondary antibody (Invitrogen 12-4998-82); the cells were incubated at 4° C. for 30 min; the red fluorescence signal was detected on a flow cytometer.
In general terms: In flow cytometry, cells or beads pass a laser one at a time.

Test [4] deals with T1, human Nectin-4 extracellular antigen …. Briefly: ELISA, coated hNectin-4-His.
From the text: as §1
The source holds these as a separate data set.

For test [5] the target is unchanged. Briefly: SPR, antibody on Protein A chip, 1:1 fit.
From the text: as §2

For test [6], the target named is T2, human Nectin-4, full length on cells. Briefly: flow cytometry, T-47D cells, antibody bound on ice, 0 h at 37 C. As for the experimental part:
as §3
This is another data set of the same source.

This note sets out measurements from patent publication US20260144882A1 (BIO THERA SOLUTIONS, published 2026).

Read-outs that look alike come from different tables or passages of the source.

B1: antibody 1B4 (antibody, human IgG1, kappa, V domains shown)
VH: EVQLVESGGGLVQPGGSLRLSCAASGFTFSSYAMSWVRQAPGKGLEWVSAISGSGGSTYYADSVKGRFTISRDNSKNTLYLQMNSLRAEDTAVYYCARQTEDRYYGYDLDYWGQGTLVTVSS
VL: DIQMTQSPSSLSASVGDRVTITCRASQGISSYLAWYQQKPGKAPKLLIYAASSLQSGVPSRFSGSGSGTDFTLTISSLQPEDFATYYCQQHYTTPPTFGQGTKVEIKR
As a reminder, the EC50 is the concentration at which the effect is half-maximal. Read a high EC50 as lower potency in that assay. For orientation: Kd means the equilibrium constant for the complex coming apart. Read a low Kd as tighter binding. As usually defined, the koff is the rate constant with which the complex falls apart. In general, kon refers to the rate constant with which the complex forms. High values mean fast association, low ones slow association. Take B1: in test [1], the EC50 came out at 0.025 µg/mL. Besides, in test [2], the Kd amounted to 5.33 nM, the koff was 0.0032 s⁻¹ and the kon is 600000 M⁻¹ s⁻¹. In addition, in test [3], the “MFI (mean fluorescence intensity) 0 h” value worked out at 108000 MFI.

B2: antibody 1F3-1G11 (antibody, human IgG1, kappa, V domains shown)
VH: EVQLVESGGGLVQPGGSLRLSCAASGYSFTGYGMSWVRQAPGKGLEWVSGISPSGGTIGYADSVKGRFTISRDNSKNTLYLQMNSLRAEDTAVYYCARAELLAFDVYTASDYWGQGTLVTVSS
VL: DIQMTQSPSSLSASVGDRVTITCRASQGISSYLAWYQQKPGKAPKLLIYAASSLQSGVPSRFSGSGSGTDFTLTISSLQPEDFATYYCQQHYTTPPTFGQGTKVEIKR
In the case of B2, the EC50 in test [4] was found to be 0.007 µg/mL. In test [5], this molecule came in with a Kd of 0.815 nM, a koff of 0.00115 s⁻¹ and a kon of 1.41e+06 M⁻¹ s⁻¹. Also, in test [6], the “MFI (mean fluorescence intensity) 0 h” value was 60500 MFI.

B3: antibody 1F3-2F3 (antibody, human IgG1, kappa, V domains shown)
VH: EVQLVESGGGLVQPGGSLRLSCAASGFNFSDYGMSWVRQAPGKGLEWVSRIDWDGGNTRYADSVKGRFTISRDNSKNTLYLQMNSLRAEDTAVYYCARAELLAFDVYTASDYWGQGTLVTVSS
VL: DIQMTQSPSSLSASVGDRVTITCRASQGISSYLAWYQQKPGKAPKLLIYAASSLQSGVPSRFSGSGSGTDFTLTISSLQPEDFATYYCQQHYTTPPTFGQGTKVEIKR
Turning to B3, in test [4], the concentration giving a half-maximal response (EC50) was 0.011 µg/mL. In test [5], this molecule had a Kd of 0.37 nM, a koff of 0.000519 s⁻¹ and a kon of 1.4e+06 M⁻¹ s⁻¹. Also, the “MFI (mean fluorescence intensity) 0 h” value in test [6] amounted to 69000 MFI.

B4: antibody 1F3-2E8 (antibody, human IgG1, kappa, V domains shown)
VH: EVQLVESGGGLVQPGGSLRLSCAASGYSFSDYGMSWVRQAPGKGLEWVSWISPSKGSASYADSVKGRFTISRDNSKNTLYLQMNSLRAEDTAVYYCARAELLAFDVYTASDYWGQGTLVTVSS
VL: DIQMTQSPSSLSASVGDRVTITCRASQGISSYLAWYQQKPGKAPKLLIYAASSLQSGVPSRFSGSGSGTDFTLTISSLQPEDFATYYCQQHYTTPPTFGQGTKVEIKR
As to B4, in test [4], the EC50 stood at 0.009 µg/mL. In test [5], this molecule came in with a Kd of 0.872 nM, a koff of 0.00102 s⁻¹ and a kon of 1.17e+06 M⁻¹ s⁻¹. In test [6], the “MFI (mean fluorescence intensity) 0 h” value came to 58200 MFI.

B5: antibody 1F3-2B1 (antibody, human IgG1, kappa, V domains shown)
VH: EVQLVESGGGLVQPGGSLRLSCAASGYNFDNYAMSWVRQAPGKGLEWVSGIKPDSATTYYADSVKGRFTISRDNSKNTLYLQMNSLRAEDTAVYYCARAELLAFDVYTASDYWGQGTLVTVSS
VL: DIQMTQSPSSLSASVGDRVTITCRASQGISSYLAWYQQKPGKAPKLLIYAASSLQSGVPSRFSGSGSGTDFTLTISSLQPEDFATYYCQQHYTTPPTFGQGTKVEIKR
In the case of B5, the concentration giving a half-maximal response (EC50) in test [4] stood at 0.014 µg/mL. In test [5], this molecule had a Kd of 0.241 nM, a koff of 0.000317 s⁻¹ and a kon of 1.32e+06 M⁻¹ s⁻¹. The “MFI (mean fluorescence intensity) 0 h” value in test [6] stood at 59400 MFI.

B6: antibody 1G12 (antibody, human IgG1, kappa, V domains shown)
VH: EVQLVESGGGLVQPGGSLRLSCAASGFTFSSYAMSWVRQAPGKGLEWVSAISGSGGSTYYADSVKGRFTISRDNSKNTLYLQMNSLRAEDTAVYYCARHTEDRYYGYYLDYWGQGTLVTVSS
VL: DIQMTQSPSSLSASVGDRVTITCRASQGISSYLAWYQQKPGKAPKLLIYAASSLQSGVPSRFSGSGSGTDFTLTISSLQPEDFATYYCQQHYTTPPTFGQGTKVEIKR
For B6, the EC50 in test [1] was 0.073 µg/mL. In addition, in test [2], the Kd was found to be 8.61 nM, the dissociation rate constant (koff) turned out to be 0.00464 s⁻¹ and the kon was found to be 539000 M⁻¹ s⁻¹.

B7: antibody 10A4 (antibody, human IgG1, kappa, V domains shown)
VH: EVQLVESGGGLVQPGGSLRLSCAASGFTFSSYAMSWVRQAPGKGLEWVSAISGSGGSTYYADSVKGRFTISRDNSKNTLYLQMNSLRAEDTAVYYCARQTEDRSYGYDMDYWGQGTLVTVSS
VL: DIQMTQSPSSLSASVGDRVTITCRASQGISSYLAWYQQKPGKAPKLLIYAASSLQSGVPSRFSGSGSGTDFTLTISSLQPEDFATYYCQQHYTTPPTFGQGTKVEIKR
Turning to B7, the concentration for a half-maximal effect (EC50) in test [1] was 0.041 µg/mL. In test [2], this molecule yielded a Kd of 6.71 nM, a koff of 0.00232 s⁻¹ and a kon of 346000 M⁻¹ s⁻¹. Also, the “MFI (mean fluorescence intensity) 0 h” value in test [3] was 107000 MFI.

B8: antibody 10F4-5 (antibody, human IgG1, kappa, V domains shown)
VH: EVQLVESGGGLVQPGGSLRLSCAASGFIFDGYDMSWVRQAPGKGLEWVSVIKDHGGYKFYADSVKGRFTISRDNSKNTLYLQMNSLRAEDTAVYYCAREYSDVVDYVSVRTPLDYWGQGTLVTVSS
VL: DIQMTQSPSSLSASVGDRVTITCRASQGISSYLAWYQQKPGKAPKLLIYAASSLQSGVPSRFSGSGSGTDFTLTISSLQPEDFATYYCQQHYTTPPTFGQGTKVEIKR
As for B8, in test [5], the equilibrium dissociation constant (Kd) came out at 0.399 nM, the off-rate constant (koff) was 0.000137 s⁻¹ and the association rate constant (kon) was 343000 M⁻¹ s⁻¹. In test [6], the “MFI (mean fluorescence intensity) 0 h” value was found to be 63400 MFI.

B9: antibody 1G7 (antibody, human IgG1, kappa, V domains shown)
VH: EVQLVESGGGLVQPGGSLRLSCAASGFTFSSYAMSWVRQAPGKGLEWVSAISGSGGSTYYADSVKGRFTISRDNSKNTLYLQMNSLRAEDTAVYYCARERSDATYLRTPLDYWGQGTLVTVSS
VL: DIQMTQSPSSLSASVGDRVTITCRASQGISSYLAWYQQKPGKAPKLLIYAASSLQSGVPSRFSGSGSGTDFTLTISSLQPEDFATYYCQQHYTTPPTFGQGTKVEIKR
The molecule B9 displayed an EC50 in test [1] of 0.022 µg/mL. In test [2], the affinity, expressed as Kd, was 16.7 nM; the off-rate (koff) came to 0.00631 s⁻¹; the association rate constant (kon) came to 377000 M⁻¹ s⁻¹.

B10: antibody 1F3-1E1 (antibody, human IgG1, kappa, V domains shown)
VH: EVQLVESGGGLVQPGGSLRLSCAASGFSFDDYAMSWVRQAPGKGLEWVSIIYPTGSTNYYADSVKGRFTISRDNSKNTLYLQMNSLRAEDTAVYYCARAELLAFDVYTASDYWGQGTLVTVSS
VL: DIQMTQSPSSLSASVGDRVTITCRASQGISSYLAWYQQKPGKAPKLLIYAASSLQSGVPSRFSGSGSGTDFTLTISSLQPEDFATYYCQQHYTTPPTFGQGTKVEIKR
Regarding B10, the response in test [4] was half-maximal at 0.017 µg/mL (EC50). In test [5], this molecule yielded a Kd of 0.141 nM, an off-rate (koff) of 0.000212 s⁻¹ and a kon of 1.51e+06 M⁻¹ s⁻¹. The “MFI (mean fluorescence intensity) 0 h” value in test [6] is 73400 MFI.

B11: antibody 1F3-1B1 (antibody, human IgG1, kappa, V domains shown)
VH: EVQLVESGGGLVQPGGSLRLSCAASGFTFGTYGMSWVRQAPGKGLEWVSGIKPGDSTTYYADSVKGRFTISRDNSKNTLYLQMNSLRAEDTAVYYCARAELLAFDVYTASDYWGQGTLVTVSS
VL: DIQMTQSPSSLSASVGDRVTITCRASQGISSYLAWYQQKPGKAPKLLIYAASSLQSGVPSRFSGSGSGTDFTLTISSLQPEDFATYYCQQHYTTPPTFGQGTKVEIKR
B11 came in with a 50% effective concentration (EC50) in test [4] of 0.016 µg/mL. In addition, in test [5], the Kd worked out at 0.17 nM, the koff is 0.000204 s⁻¹ and the kon was found to be 1.2e+06 M⁻¹ s⁻¹. Also, in test [6], the “MFI (mean fluorescence intensity) 0 h” value was found to be 65300 MFI.
